According to IntAct's records for PubMed 12058072:

B1: Serine/threonine-protein kinase GIN4 (Saccharomyces cerevisiae), Q12263 (parent)
chain: MAINGNSIPAIKDNTIGPWKLGETLGLGSTGKVQLARNGSTGQEAAVKVISKAVFNTGNVSGTSIVGSTTPDALPYGIEREIIIMKLLNHPNVLRLYDVWETNTDLYLVLEYAEKGELFNLLVERGPLPEHEAIRFFRQIIIGVSYCHALGIVHRDLKPENLLLDHKYNIKIADFGMAALETEGKLLETSCGSPHYAAPEIVSGIPYQGFASDVWSCGVILFALLTGRLPFDEEDGNIRTLLLKVQKGEFEMPSDDEISREAQDLIRKILTVDPERRIKTRDILKHPLLQKYPSIRDSKSIRGLPREDTYLTPLSESNSSIDATILQNLVILWHGRDPEGIKEKLREPGANAEKTLYALLYRFKCDTQKELIKQQQVKKRQSISSVSVSPSKKVSTTPQRRRNRESLISVTSSRKKPISFNKFTASSASSSNLTTPGSSKRLSKNFSSKKKLSTIVNQSSPTPASRNKRASVINVEKNQKRASIFSTTKKNKRSSRSIKRMSLIPSMKRESVTTKLMSTYAKLAEDDDWEYIEKETKRTSSNFATLIDEIFEYEKYEQIRKEKEELERKVREAKAREELERRRRKQEEKERARKLLEKEDLKRKQEELKKQIEIDISDLEQELSKHKEEKLDGNIRSISAPMENEEKNINHLEVDIDNILRRRNFSLQTRPVSRLDPGIMFSSPTEEVSPVEPKRTENERLTTEKKILETIRRSKFLGSSFNIDKELKLSKMEYPSIIAPQRLSEERVVSDSNDGYESLILPKDGNGVSQLKDSTATTAPVSDGRLRKISEIRVPQFTRKSRHFSESNKRLSVLSMYSTKESFTNLVDILKNGNLDVNNQQSQRIPTPRSADDSEFLFETVNEEAEYTGNSSNDERLYDVGDSTIKDKSALKLNFADRFNGSNEAKQTDNLHLPILPPLNGDNELRKQNSQEGDQAHPKIKSMIPESGSSSHTEKEEENEEKEEKKPEQHKQEEDQEKREKVVDDMEPPLNKSVQKIREKNAGSQAKDHSKDHLKEHKQDKNTAIGNGSFFRKFSKSSDKTMELYAKISAKQLFNGLEKLLRGWTQYGLKNIKSHPNNLTLTGKLSSDNIFSLRSTLFEVNIYPRGKMSVVQFKKVSGSFKAVKKLVNEVENVLNKEGVLQK
partner: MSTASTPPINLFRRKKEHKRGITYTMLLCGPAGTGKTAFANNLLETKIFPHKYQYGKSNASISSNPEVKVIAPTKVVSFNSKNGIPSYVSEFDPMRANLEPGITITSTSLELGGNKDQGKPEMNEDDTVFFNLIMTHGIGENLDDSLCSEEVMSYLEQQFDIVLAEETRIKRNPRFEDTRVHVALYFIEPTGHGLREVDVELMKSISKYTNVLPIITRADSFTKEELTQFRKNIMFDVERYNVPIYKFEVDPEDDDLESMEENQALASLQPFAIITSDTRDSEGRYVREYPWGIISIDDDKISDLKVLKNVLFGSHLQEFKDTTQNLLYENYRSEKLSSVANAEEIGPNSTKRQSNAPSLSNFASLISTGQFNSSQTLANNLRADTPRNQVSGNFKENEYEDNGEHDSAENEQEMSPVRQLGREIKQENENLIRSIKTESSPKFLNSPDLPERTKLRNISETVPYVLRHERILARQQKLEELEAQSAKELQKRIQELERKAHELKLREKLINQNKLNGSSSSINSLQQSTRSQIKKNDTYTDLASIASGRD

Variants of: B1
Conditions: with shs1_yeast SHS1, Q07657

Variant	effect of a mutation on the interaction
K48A	disrupting interaction
